Experimental findings from article PMC3531522, “Nasal Colonisation by Staphylococcus aureus Depends upon Clumping Factor B Binding to the Squamous Epithelial Cell Envelope Protein Loricrin” (PLoS Pathogens, 2012) are described below.

To fix the notation:
T1: GST-murine loricrin_(1–480) (murine, UniProt P18165 1-486)
T1 construct: Loricrin, murine, full length, printed as residues 1-480; The printed length (480) may differ from that of the UniProt entry; also called MLor; GST-MLor; source: DNA codon optimised for E. coli, in pGEX-4T; purified on GSTrap FF; not shown: GST, N-terminal, kept
T1 sequence (looked up): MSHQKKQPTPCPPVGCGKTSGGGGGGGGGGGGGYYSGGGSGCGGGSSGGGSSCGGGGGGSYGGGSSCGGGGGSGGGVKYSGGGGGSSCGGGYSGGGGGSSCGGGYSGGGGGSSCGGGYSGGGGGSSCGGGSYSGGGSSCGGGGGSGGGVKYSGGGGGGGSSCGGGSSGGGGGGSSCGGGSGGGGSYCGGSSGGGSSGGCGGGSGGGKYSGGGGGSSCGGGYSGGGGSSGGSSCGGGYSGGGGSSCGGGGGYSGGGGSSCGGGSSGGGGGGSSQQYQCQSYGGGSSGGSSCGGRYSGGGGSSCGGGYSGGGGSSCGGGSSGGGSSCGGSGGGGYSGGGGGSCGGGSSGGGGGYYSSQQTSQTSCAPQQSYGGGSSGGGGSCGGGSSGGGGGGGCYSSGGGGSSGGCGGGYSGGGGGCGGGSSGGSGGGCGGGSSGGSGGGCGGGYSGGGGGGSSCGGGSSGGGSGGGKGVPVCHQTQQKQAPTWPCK

B1: Recombinant ClfB N2N3 (rClfB_(201–542)) (domain or fragment)
chain: AEPVVNAADAKGTNVNDKVTASNFKLEKTTFDPNQSGNTFMAANFTVTDKVKSGDYFTAKLPDSLTGNGDVDYSNSNNTMPIADIKSTNGDVVAKATYDILTKTYTFVFTDYVNNKENINGQFSLPLFTDRAKAPKSGTYDANINIADEMFNNKITYNYSSPIAGIDKPNGANISSQIIGVDTASGQNTYKQTVFVNPKQRVLGNTWVYIKGYQDKIEESSGKVSATDTKLRIFEVNDTSKLSDSYYADPNDSNLKEVTDQFKNRIYYEHPNVASIKFGDITKTYVVLVEGHYDNTGKNLKTQVIQENVDPVTNRDYSIFGWNNENVVRYGGGSADGDSAVN
notes: Clumping factor B (ClfB) of S. aureus, amino acids 201-542 (subdomains N2 and N3 of the A domain), amplified from plasmid pCU1:clfB; also called ClfB N2N3_(201–542); ClfB N23_(201–542); not shown: His6, N-terminal, kept
B2: GST-human K10_(544–563) (peptide)
chain: GGSSGGGSSSGGGYGGGSSS
notes: Cytokeratin 10 (K10), human, residues 544-563 (C-terminal tail region); also called HK10; GST-HK10; source: DNA codon optimised for E. coli, in pGEX-4T; purified on GSTrap FF; not shown: GST, N-terminal, kept
B3: GST-murine K10_(454–570) (domain or fragment, UniProt P02535 454-570, looked up)
chain: EGSSSGGGGGRRGGSGGGSYGGSSGGGSYGGSSGGGGSYGGSSGGGGSYGGGSSGGGSHGGSSGGGYGGGSSSGGAGGHGGSSGGGYGGGSSSGGQGGSGGFKSSGGGDQSSKGPRY
notes: Cytokeratin 10 (K10), murine, residues 454-570 (C-terminal tail region); also called MK10; GST-MK10; source: DNA codon optimised for E. coli, in pGEX-4T; purified on GSTrap FF; not shown: GST, N-terminal, kept
B4: GST-Fgα_(316–367) (domain or fragment, UniProt P02671 335-386, looked up)
chain: NSGSSGTGSTGNQNPGSPRPGSTGTWNPGSSERGSAGHWTSESSVSGSTGQW
notes: Fibrinogen α-chain, residues 316-367, repeat domain 5 of the αC region; also called repeat domain 5 of the αC region of Fg
B5: GST-human loricrin_(1–315) (natural protein, UniProt P23490 1-312, looked up)
chain: MSYQKKQPTPQPPVDCVKTSGGGGGGGGSGGGGCGFFGGGGSGGGSSGSGCGYSGGGGYSGGGCGGGSSGGGGGGGIGGCGGGSGGSVKYSGGGGSSGGGSGCFSSGGGGSGCFSSGGGGSSGGGSGCFSSGGGGSSGGGSGCFSSGGGGFSGQAVQCQSYGGVSSGGSSGGGSGCFSSGGGGGSVCGYSGGGSGCGGGSSGGSGSGYVSSQQVTQTSCAPQPSYGGGSSGGGGSGGSGCFSSGGGGGSSGCGGGSSGIGSGCIISGGGSVCGGGSSGGGGGGSSVGGSGSGKGVPICHQTQQKQAPTWPSK
notes: Loricrin, human, full length, printed as residues 1-315 (S1 to K315); also called HLor; Hlor; source: DNA codon optimised for E. coli, in pGEX-4T; purified on GSTrap FF; not shown: GST, N-terminal, kept

What all share (assay): SPR; BIAcore X100; GST-tagged ligand captured on a CM5 chip coated with goat anti-GST IgG, GST on the reference cell; increasing concentrations of rClfB_(201–542) in PBS passed in succession without regeneration (single cycle); KD from response at equilibrium against concentration
Assay [1] addresses GST-tagged human loricrin loop region 1B (human).
Assay [2] deals with GST-tagged human loricrin loop region 3 (human).
The target in assay [3] is GST-tagged human loricrin loop region 2v (human).
The target of assay [4] is GST-tagged human loricrin loop region 2 (human).
Assay [5] has as its target GST-tagged human loricrin loop region 1A (human).
For assay [6], the target named is T1, GST-murine loricrin_(1–480). The note with it: both partners purified.
Assay [7] concerns the target B1. The note with it: both partners purified.
For assay [8], the target named is B1. The following applies: both partners purified. The source holds these as a separate data set.

“Recombinant ClfB N2N3 (rClfB_(201–542)) (from UniProt O86476 201-542) (domain or fragment)”: the Kd was determined as 34.5 µM in assay [1]; 5.47 µM in assay [2]; 2.21 µM in assay [3]; 3.31 µM in assay [4]; 16.7 µM in assay [5].
In the case of B1, binding in assay [6] was characterised by a dissociation constant (Kd) of 15.7 µM.
For B2, the Kd in assay [7] came out at 7.89 µM.
The same measure, in the same setting: the figure for B3 is 14.4 µM.
On to B4, for which the Kd in assay [8] amounted to 5.52 ± 1.5 µM; in assay [7], 5.25 µM.
Consider B5, for which, in assay [7], the Kd is 4.33 µM.

As usually defined, the Kd is the free concentration of one partner at which half of the binding sites on the other are occupied at equilibrium, for simple one-to-one binding.
